Source: patent US20240010735A1 (EISAI R AND D MANAGEMENT, published 2024)

Assays:
Experiment in all cases: ELISA: SEAP-His proteins (1 nM) captured on anti-6-His antibody, antibody A 10 µg/mL with human IgG 100 µg/mL, HRP anti-mouse IgG, OD450 as % of human EphA4-SEAP-His
[1] = target: T1, human EphB2 extracellular region-SEAP-His protein (human, UniProt P29323 19-543)
T1 construct: extracellular domain; also called Eph receptor extracellular region-SEAP-His protein; not shown: secretory alkaline phosphatase (SEAP); histidine tag
T1 sequence (looked up): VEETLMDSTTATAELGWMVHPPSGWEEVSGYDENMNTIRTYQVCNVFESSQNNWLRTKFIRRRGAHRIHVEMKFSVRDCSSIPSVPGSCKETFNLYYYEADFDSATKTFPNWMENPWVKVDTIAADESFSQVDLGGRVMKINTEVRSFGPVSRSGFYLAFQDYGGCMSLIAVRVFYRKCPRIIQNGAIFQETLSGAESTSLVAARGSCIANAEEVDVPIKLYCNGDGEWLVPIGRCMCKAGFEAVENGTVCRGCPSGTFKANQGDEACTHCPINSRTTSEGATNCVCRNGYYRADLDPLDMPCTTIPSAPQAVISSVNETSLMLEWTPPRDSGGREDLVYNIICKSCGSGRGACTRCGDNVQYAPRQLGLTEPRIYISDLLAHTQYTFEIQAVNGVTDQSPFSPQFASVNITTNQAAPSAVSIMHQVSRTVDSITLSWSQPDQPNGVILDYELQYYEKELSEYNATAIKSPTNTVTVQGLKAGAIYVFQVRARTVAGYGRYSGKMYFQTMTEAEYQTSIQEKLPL
Method: (§1) Rabbit anti-6-His antibodies (Bethel Laboratories) were coated onto the wells of a 96-well plate (Nunc). After incubating at 4° C. overnight, the wells were blocked at room temperature for 1 hour by 1% Block Ace (DS Pharma Biomedical). After washing 3 times with 0.05% Tween 20/PBS (Thermo […]), each Eph receptor of human extracellular region-SEAP-His protein (final concentration 1 nM) was seeded into each well, and incubated at room temperature for 1 hour. After washing 3 times, human IgG solution (100 μg/mL, Mitsubishi Pharma Corporation) and antibody A (10 μg/mL) were supplemented to the wells, and incubated at room temperature for 1 hour. Horseradish peroxidase-labeled donkey anti-mouse IgG antibody (Jackson ImmunoResearch Laboratories) was added, and incubated at room, temperature for 1 hour. After washing 3 times, TMBZ (3,3′,5,5′-tetramethylbenzidine, Sigma) solution was added to the wells, and upon confirmation of modest coloring, an equal amount of quenching solution (1 N H₂SO₄, Wako Pure Chemicals) was added to the wells, and absorbance at 450 nm was read by a microplate reader (PerkinElmer).

[2] = target: T2, human EphB1 extracellular region-SEAP-His protein (human, UniProt P54762 18-540)
T2 construct: extracellular domain; also called Eph receptor extracellular region-SEAP-His protein; not shown: secretory alkaline phosphatase (SEAP); histidine tag
T2 sequence (looked up): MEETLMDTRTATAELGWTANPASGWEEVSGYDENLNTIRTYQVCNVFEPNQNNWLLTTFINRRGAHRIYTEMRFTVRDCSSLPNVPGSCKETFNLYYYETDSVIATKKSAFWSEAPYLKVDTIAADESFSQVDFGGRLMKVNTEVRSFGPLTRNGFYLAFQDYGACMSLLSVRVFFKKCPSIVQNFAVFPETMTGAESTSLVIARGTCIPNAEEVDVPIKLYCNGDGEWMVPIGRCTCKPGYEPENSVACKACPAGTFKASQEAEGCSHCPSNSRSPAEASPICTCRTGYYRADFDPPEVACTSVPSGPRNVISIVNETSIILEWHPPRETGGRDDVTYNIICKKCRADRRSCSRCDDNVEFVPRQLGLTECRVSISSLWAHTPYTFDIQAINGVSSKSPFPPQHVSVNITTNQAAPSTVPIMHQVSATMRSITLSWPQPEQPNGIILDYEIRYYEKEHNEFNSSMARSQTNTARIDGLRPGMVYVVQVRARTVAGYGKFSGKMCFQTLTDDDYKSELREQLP
Method: as §1

[3] = target: T3, human EphA3 extracellular region-SEAP-His protein (human, UniProt P29320 21-541)
T3 construct: extracellular domain; also called Eph receptor extracellular region-SEAP-His protein; not shown: secretory alkaline phosphatase (SEAP); histidine tag
T3 sequence (looked up): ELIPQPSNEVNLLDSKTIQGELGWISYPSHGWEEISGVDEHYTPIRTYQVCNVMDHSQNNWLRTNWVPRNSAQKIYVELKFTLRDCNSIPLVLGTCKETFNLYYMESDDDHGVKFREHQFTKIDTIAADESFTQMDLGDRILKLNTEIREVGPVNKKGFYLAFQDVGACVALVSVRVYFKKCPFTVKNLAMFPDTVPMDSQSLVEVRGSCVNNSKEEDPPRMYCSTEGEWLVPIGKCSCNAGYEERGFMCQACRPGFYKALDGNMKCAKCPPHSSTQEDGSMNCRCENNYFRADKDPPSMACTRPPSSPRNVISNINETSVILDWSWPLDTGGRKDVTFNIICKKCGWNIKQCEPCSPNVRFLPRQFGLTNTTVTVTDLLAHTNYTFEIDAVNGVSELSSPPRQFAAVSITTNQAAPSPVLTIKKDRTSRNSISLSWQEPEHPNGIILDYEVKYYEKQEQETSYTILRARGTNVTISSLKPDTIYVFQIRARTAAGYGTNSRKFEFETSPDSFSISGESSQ
Method: as §1

Measured: binding result

B1: mouse anti-EphA4 monoclonal antibody (antibody A) (antibody, mouse IgG1, kappa, V domains shown)
VH: QVQLKQSGPSLVQPSQSLSITCTVSGFSLTRYGVHWVRQSPGKGLEWLGVIWRGGSTDYNAAFMSRLSITKDNSKSQVFFKMNSLQADDTAIYYCAKESLFGVYYDYGYYSMDYWGQGTSVTVSS
VL: DIQMTQSPSSLSASLGERVSLTCRASQEISGYLSWLQQKPDGTIKRLIYAASTLDSGVPKRFSGSRSGSDYSLTISSLESEDFADYYCLQYASYPLTFGAGTKLELKR
notes: purified from hybridoma supernatant
no binding (tested: 10 µg/mL): all assays above
